According to US20200199192A1 (SHIRE NPS PHARMACEUTICALS, published 2020):

How the values were obtained:
[1] = molecular target: the molecule itself; assay: NanoDSF at room temperature, self-association
From the text: Only the tryptophan fluorescence from the protein contributes to the signal. If tryptophan is buried or stable, the peak is at 330 nm and if the tryptophan is exposed or flexible, the peak is at 350 nm.

[2] = molecular target: the molecule itself; assay: microscale thermophoresis (MST), self-association; MST
Protocol: Microscale thermophoresis (MST) and nano differential scanning fluorimetry (NanoDSF) were performed to characterize the dimer-monomer transition. MST was used to determine the monomer/dimer equilibrium dissociation constant Kd. MST is based on thermodriven diffusion of molecules while NanoDSF is based on Trp fluorescence and is commonly used for thermostability Tm.

HGDGSFSDEMNTILDNLAARDFINWLIQTKITD (also called Gattex) [teduglutide] was tested, and the Kd [1] was 77 µM and the Kd [2] was 24 µM.
